Molecular target: T1, ovalbumin (UniProt P01012 2-386)
T1 sequence: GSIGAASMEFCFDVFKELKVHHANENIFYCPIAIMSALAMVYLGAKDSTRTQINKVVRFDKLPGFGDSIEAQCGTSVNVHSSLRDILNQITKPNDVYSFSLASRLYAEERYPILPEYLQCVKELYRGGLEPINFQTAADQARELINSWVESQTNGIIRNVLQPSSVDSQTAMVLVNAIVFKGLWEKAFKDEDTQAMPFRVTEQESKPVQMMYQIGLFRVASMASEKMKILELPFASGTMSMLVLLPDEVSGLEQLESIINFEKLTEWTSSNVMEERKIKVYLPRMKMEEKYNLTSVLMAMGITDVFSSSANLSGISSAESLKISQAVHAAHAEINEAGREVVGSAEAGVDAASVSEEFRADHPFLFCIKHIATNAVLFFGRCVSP
Assay: phage ELISA, ovalbumin coated 100 ng per well, anti-HA or anti-M13 detection

B1: 2G12 domain exchanged Fab fragment displayed on phage (Fab, V domains shown)
VH: EVQLVESGGGLVKAGGSLILSCGVSNFRISAHTMNWVRRVPGGGLEWVASISTSSTYRDYADAVKGRFTVSRDDLEDFVYLQMHKMRVEDTAIYYCARKGSDRLSDNDPFDAWGPGTVVTVSP
VL: GVVMTQSPSTLSASVGDTITITCRASQSIETWLAWYQQKPGKAPKLLIYKASTLKTGVPSRFSGSGSGTEFTLTISGLQFDDFATYHCQHYAGYSATFGQGTRVEIKR
notes: also called 2G12 Fab; phage from 2G12 pCAL G13 vector
- binding result: no binding
